The target in one test is T1, ACAD9-His6 R518H (human, UniProt Q9H845 38-621, R518H).
T1 sequence: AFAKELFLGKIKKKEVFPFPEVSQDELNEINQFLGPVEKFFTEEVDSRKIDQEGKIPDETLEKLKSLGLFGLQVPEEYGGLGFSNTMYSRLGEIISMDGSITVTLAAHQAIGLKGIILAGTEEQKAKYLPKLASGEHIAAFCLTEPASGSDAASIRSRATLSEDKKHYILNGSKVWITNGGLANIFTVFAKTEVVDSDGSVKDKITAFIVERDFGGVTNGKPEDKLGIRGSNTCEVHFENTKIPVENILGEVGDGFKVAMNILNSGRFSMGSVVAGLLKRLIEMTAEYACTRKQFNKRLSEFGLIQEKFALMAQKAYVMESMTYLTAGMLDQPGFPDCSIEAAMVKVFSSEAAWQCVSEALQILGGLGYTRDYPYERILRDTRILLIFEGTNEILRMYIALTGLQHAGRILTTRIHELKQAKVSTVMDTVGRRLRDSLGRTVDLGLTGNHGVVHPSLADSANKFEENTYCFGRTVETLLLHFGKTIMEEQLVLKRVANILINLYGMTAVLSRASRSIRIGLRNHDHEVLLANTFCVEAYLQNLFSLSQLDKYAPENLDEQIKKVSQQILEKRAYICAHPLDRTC
The experiment in a line: SEC. (In gel filtration, larger molecules generally elute earlier.)

The target in another test is T2, ACAD9-His6 R532W (human, UniProt Q9H845 38-621, R532W).
T2 sequence: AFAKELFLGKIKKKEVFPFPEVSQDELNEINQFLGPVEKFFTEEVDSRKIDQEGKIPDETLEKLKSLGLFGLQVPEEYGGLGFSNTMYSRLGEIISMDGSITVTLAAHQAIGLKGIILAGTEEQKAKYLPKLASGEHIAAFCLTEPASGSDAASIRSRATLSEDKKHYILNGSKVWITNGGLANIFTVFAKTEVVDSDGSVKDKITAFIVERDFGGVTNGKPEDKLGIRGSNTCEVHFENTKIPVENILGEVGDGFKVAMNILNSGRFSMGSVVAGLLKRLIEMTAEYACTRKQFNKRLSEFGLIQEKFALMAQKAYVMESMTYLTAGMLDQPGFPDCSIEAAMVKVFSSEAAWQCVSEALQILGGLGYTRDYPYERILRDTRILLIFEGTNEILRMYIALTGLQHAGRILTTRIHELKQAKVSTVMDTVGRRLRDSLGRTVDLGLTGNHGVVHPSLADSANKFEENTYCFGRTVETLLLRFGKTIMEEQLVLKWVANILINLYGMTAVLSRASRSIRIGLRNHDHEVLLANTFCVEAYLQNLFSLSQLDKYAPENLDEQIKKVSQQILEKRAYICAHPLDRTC
The experiment in a line: SEC.

B1: His6-ECSIT (mature human mitochondrial ECSIT with N-terminal His tag) (natural protein)
chain: SSEQSLVPSPPEPRQRPTKALVPFEDLFGQAPGGERDKASFLQTVQKFAEHSVRKRGHIDFIYLALRKMREYGVERDLAVYNQLLNIFPKEVFRPRNIIQRIFVHYPRQQECGIAVLEQMENHGVMPNKETEFLLIQIFGRKSYPMLKLVRLKLWFPRFMNVNPFPVPRDLPQDPVELAMFGLRHMEPDLSARVTIYQVPLPKDSTGAADPPQPHIVGIQSPDQQAALARHNPARPVFVEGPFSLWLRNKCVYYHILRADLLPPEEREVEETPEEWNLYYPMQLDLEYVRSGWDNYEFDINEVEEGPVFAMCMAGAHDQATMAKWIQGLQETNPTLAQIPVVFRLAGSTRELQTSSAGLEEPPLPEDHQEEDDNLQRQQQGQS
In the case of B1, the binding result in the test with ACAD9-His6 R518H and in the test with ACAD9-His6 R532W was “binds” throughout.

The values are drawn from article PMC8497999 (iScience, 2021).
